We go through 18 sequences from the supplement of paper PMC9170038.

This data set deals with MS2 coat protein. In words: apparent KD of MS2 coat protein; higher = weaker reporter binding. Conditions: Eterna round: R107. The procedure:
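RNA-MaP round R107: designed RNA switches with theophylline, tryptophan, arginine or FMN aptamers are transcribed on-chip within common flanks. They are titrated with SNAP-549-labelled MS2 coat protein in RNA-MaP buffer (100 mM Tris pH 7.5, 80 mM KCl, 4 mM MgCl2), without ligand or with the indicated ligand. Median apparent KD per design.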

The mark [1] stands for this setting: input ligand: theophylline 20 uM.
The mark [2] stands for this setting: input ligand: theophylline 2 mM.
Setting [3] is: input ligand: tryptophan 2.4 mM.

As to “AAUACAGUGUCGGCCGCCACUGAAACAUGACAUGAGACAUGAGGAUCACCCAUGUACAUAAUAAACAGGACCGGGACCCAUGUAU [Same State Tryptophan B]”, the “apparent KD of MS2 coat protein” value came out at 0.0289 µM (input ligand: arginine 13.2 mM), 0.0424 µM under setting [1] and 0.0425 µM under setting [2].
“AAUAGACAUGAGGAUCACCCAUGUAUGGAAGGAGCGGUGAAUAAACCAGGUAGGUCGCCAGUGUGAGGGUCAUCUAUGUAAUAAA [#18 Exclusion - Arginine A]”: the “apparent KD of MS2 coat protein” value reads like this: (input ligand: arginine 13.2 mM) 0.0376 µM; (input ligand: none) 0.049 µM; under setting [1], 0.0633 µM; under setting [2], 0.0621 µM; under setting [3], 0.0469 µM.
As to “AAUAGUCCUCGACAUGAGGAUCACCCAUGUCGAGGACCGGUACGGCCGCCACUCGACAUGAGGAUCACCCAUGUUGAGUGAUAAA [prototype 1]”, the “apparent KD of MS2 coat protein” value reads like this: (input ligand: arginine 13.2 mM) 0.00758 µM; under setting [1], 0.00826 µM; under setting [2], 0.00782 µM.
Take “AAUAGUCCUCGACAUGGGUAUCACCCAUGUCGAGGACCGGUACGGCCGCCACUCGACAUGAGGAUCACCCAUGUUGAGUGAUAAA [prototype 1.1]”: the “apparent KD of MS2 coat protein” value is, setting by setting: (input ligand: arginine 13.2 mM) 0.0122 µM; (input ligand: none) 0.00957 µM; under setting [1], 0.0137 µM; under setting [2], 0.00931 µM; under setting [3], 0.00909 µM.
Take “AAUAUAAGUGUAAUUUUAUGUAUCUCUGAUACCAGACCCUCAUGUGUCCCUUGGCAGCAGUAACAUGAGGAUCACCCAUGUAAAA [JR_Nu_SSTheophyA_Sub023]”: the “apparent KD of MS2 coat protein” value stood at 0.0307 µM (input ligand: arginine 13.2 mM), 0.103 µM under setting [1] and 0.086 µM under setting [3].
Regarding “AAUCUGUCGGGUGAUACCAGCCUCGGCGCAUCUCGCACCGAACAUGAGGAUCACCCAUGUGGCCCUUGGCAGCACAUGACAAAUC [Ermateus]”, the “apparent KD of MS2 coat protein” value is, setting by setting: (input ligand: arginine 13.2 mM) 0.113 µM; under setting [1], 0.767 µM; under setting [3], 0.654 µM.
On to “AAUGGCGUUGGUGAGGCGGUUAAUGGCGAUACCAGCGUGGAAACACGCCCUUGGCAGCGCCAAAACAUGAGGAUCACCCAUGUUA [Olomouc]”, for which the “apparent KD of MS2 coat protein” value came out at 0.0158 µM (input ligand: arginine 13.2 mM), 0.0235 µM under setting [1] and 0.0169 µM under setting [3].
Consider “AAUGUAUGGCACAUGAGGAUCACCCAUGUGCGAGGACCGGUACGGCCGCCACUCGGUCCUGGGAUCUUACCACUAUACAUUAAUG [XTryp A #21]”, for which the “apparent KD of MS2 coat protein” value came out at 0.0102 µM (input ligand: arginine 13.2 mM), 0.0148 µM under setting [1] and 0.0113 µM under setting [2].
On to “AAUUAGAUGUCGGCCGCCACUGAUGUGUCUGUUGCGUCCAGUGUGUACAUGAGGAUCACCCAUGUCAGGACCGGGACUUUAAAUU [Sodigeedar]”, for which the “apparent KD of MS2 coat protein” value by setting is: (input ligand: arginine 13.2 mM) 0.0124 µM; under setting [1], 0.0135 µM; under setting [2], 0.0123 µM.
Regarding “AAUUCAGGGUCGGCCGCCACUGGUAUGGCGAGUCCUCGAACUUACAUGAGGAUCACCCAUGUGAACAGGACCGGGACAGCAUGGG [Exclusion Tryptophan B GF 22]”, the “apparent KD of MS2 coat protein” value is, setting by setting: (input ligand: arginine 13.2 mM) 0.0578 µM; (input ligand: none) 0.233 µM; under setting [1], 0.256 µM; under setting [2], 0.239 µM; under setting [3], 0.214 µM.
On to “AAUUCCUAACAUGAGGAUCACCCAUGUGAAGGAGCGCCGAAUAAGGCAGGUAGGUCGCACAUGGAACAGCUGCGAAAGAGGAAAA [XArg-A 5 V1&2]”, for which the “apparent KD of MS2 coat protein” value was 0.0119 µM (input ligand: arginine 13.2 mM); 0.0132 µM (input ligand: none); 0.0153 µM under setting [1]; 0.0125 µM under setting [2]; 0.0127 µM under setting [3].
Regarding “AAUUGGGUUGGUGAGGUGGUUGGAGGCGAUACCAGCGUGGAAACACGCCCUUGGCAGCGCCAAAACAUGAGGAUCACCCAUGUUA [Plzen]”, the “apparent KD of MS2 coat protein” value is, setting by setting: (input ligand: arginine 13.2 mM) 0.042 µM; (input ligand: none) 0.475 µM; under setting [1], 0.365 µM; under setting [2], 0.484 µM; under setting [3], 0.157 µM.
On the same counts, the results for “AAUUGGGUUGGUGAGGUGGUUGGAGGCGAUACCAGCGUGGAAACACGCCCUUGGCAGCGCCAGGACAUGAGGAUCACCCAUGUUA [Brno]” are 0.0489 µM, 0.131 µM, 0.16 µM, 0.448 µM and 0.175 µM.
Turning to “AAUUUAUGGUUCUUGAUGUAGUAUCUAUUUCGAGGACCGGUACGGCCGCCACUCGUAAAUUACAUGAGGAUCACCCAUGUUAGCU [JR_ExcTryptoA_Sub011]”, the “apparent KD of MS2 coat protein” value (input ligand: arginine 13.2 mM) stood at 0.0188 µM, the “apparent KD of MS2 coat protein” value under setting [1] turned out to be 0.027 µM and the “apparent KD of MS2 coat protein” value under setting [2] was 0.0288 µM.
On to “AAUUUUCACGGAAGGAGCGUCACGUAAUUCAUACAUGAGGAUCACCCAUGUUAGUGGUAGAGACAGGUAGGUCGCCGUUAUUUGA [JR_AAArginiB_Sub026]”, for which the “apparent KD of MS2 coat protein” value is, setting by setting: (input ligand: arginine 13.2 mM) 0.0143 µM; (input ligand: none) 0.0168 µM; under setting [1], 0.0353 µM; under setting [2], 0.0203 µM; under setting [3], 0.0214 µM.
For “ACACACAUGAGGAUCACCCAUGUCUAUAUACGAGGACCGGUACGGCCGCCACUCGUGAGAUCGCGAGAGACAGCUUUGGGCUAGU [theeternabot_sameState_MS2_Trp_A_37]”, the “apparent KD of MS2 coat protein” value is 0.017 µM (input ligand: arginine 13.2 mM), 0.0239 µM under setting [1] and 0.019 µM under setting [2].
Regarding “ACACAUGAGGGAAGGAGCGCCAUGAACACACAUGAGGAUCACCCAUGUUUUUUUUGUGUUUGGCAGGUAGGUCGCCCACAUGAGG [Same State Arginine B 2]”, the “apparent KD of MS2 coat protein” value runs as follows: (input ligand: arginine 13.2 mM) 0.00738 µM; (input ligand: none) 0.0101 µM; under setting [1], 0.0225 µM; under setting [2], 0.00933 µM; under setting [3], 0.00757 µM.
On the same counts, the results for “ACACGAAGCUGAAGGAGCGUGAUAUAAAUUUUUACAUGAGGAUCACCCAUGUUUCAUCGAUCACAGGUAGGUCGCAGAUGCGUGA [JR_SSArginiB_Sub013]” are 0.0152 µM, 0.0144 µM, 0.0169 µM, 0.0169 µM and 0.0148 µM.
